From patent US7414023B2, “Peptide ligands for prostate specific antigen” (Licentia Ltd., priority 2000, dated 2008)
Bridge positions count the residues as written; N and C are the ends. Square brackets hold non-standard residues; d marks the D form. Ends that are not written are not given here. Ahx = NCCCCCC(=O)O

How the values were obtained:
PSA [1] = biological target: T1, PSA (Homo sapiens, UniProt P07288); experiment: Enzyme activity of PSA with chromogenic substrate S-2586; format: biochemical; set-up: PSA was purified from human seminal fluid as described previously (3); from tissue; host or cells: human seminal fluid; settings: for effect of derivatization or labeling on PSA binding activity, read as effect on PSA enzyme activity (in words): PSA (0.33 mM / 0.33 μM as printed); for effect of derivatization or labeling on PSA binding activity, read as effect on PSA enzyme activity (in words) / effect on the enzyme activity of PSA (in words): S-2586; for effect on the enzyme activity of PSA (in words): synthetic peptides in 100-fold molar excess
Procedure: The enzyme activity of PSA was studied in the presence of peptides alone or together with Zn^2+ by using the chymotrypsin substrate S-2586 (MeO-Suc-Arg-Pro-Tyr-pNA) (Chromogenix, Mölndal, Sweden). […] PSA (333 nM) was incubated with a 1-100-fold molar excess of GST-peptide or 100-fold excess of synthetic peptide in TBS buffer, pH 7.8 containing 0.5 g/L BSA for 1 h at 22° C. The effect of Zn^2+ on the enzyme activity of PSA was studied by including 1-200 μM of ZnCl2 in the reaction buffer. The combined effect of peptides and Zn2+ on the enzyme activity of PSA was studied by incubating PSA (333 nM) with peptide (333 nM) in the buffer containing 1-200 μM Zn^2+ for 1 h. After addition of substrate to a final concentration 0.2 mM, the absorbance was monitored at 5-min intervals for 2 h at 405 nm on a Labsystems Multiskan MCC/340 photometer (Labsystems, Helsinki, Finland). As a control, the effect of wild type GST on the enzyme activity of PSA was tested.
In the experiments, PSA (0.33 μM) was incubated with increasing concentrations of GST-C-4 (0-100-fold molar excess) for 1 h, after which the chromogenic substrate S-2586 was added and enzyme activity was monitored by measuring the absorbance at 405 nm. Data represent mean values from duplicate wells ±SE.
PSA (0.33 μM) was incubated with chemically synthesized peptides (100-fold molar excess) for 1 h, after which the chromogenic substrate S-2586 was added and enzyme activity was monitored by measuring the absorbance at 405 nm.
Because zinc is known to inhibit the enzyme activity of PSA, we further characterized the effect of GST-peptides on the enzyme activity of PSA by assessing the combined effect of peptides and Zn^2+. […] The effect of GST-C-4 and Zn^2+ on enzyme activity was determined by incubating PSA (0.33 μM) with the same molar concentration of GST-C-4 and various concentrations of Zn^2+. The reaction was monitored by measuring absorbance at 405 nm after addition of the chromogenic substrate S-2586. […] Data represent mean values from duplicate wells ±SE.
(§1) Data represent mean values from duplicate wells ±SE.
As control the enzyme activity of PSA alone was measured.
as §1
20 μg of the peptide was iodinated by the Iodogen method. After iodination the peptide was purified by using C18 Sep-Pak column.

PSA [2] = biological target: T1, PSA; experiment: GST-peptide IFMA: binding of GST-peptides to PSA captured by MAb 5E4; set-up: PSA was purified from human seminal fluid as described previously (3); from tissue; host or cells: human seminal fluid; settings: GST fusion proteins
Procedure: After washing the binding of GST-peptide was quantified by IFMA using an Eu-labelled anti GST antibody as tracer. Data represent mean values from duplicate wells ±standard error (SE).
The solid phase antibodies used in the IFMAs were coated onto microtitration wells at a concentration of 5 μg/mL in TBS for 16 h at 22° C., the solution was discarded and the wells were saturated with 10 g/L bovine serum albumin in TBS for 3 h at 22° C. The antibodies used as tracers were labeled with a Eu^3+ chelate as described previously (26). The assay buffer was 50 mM Tris-HCL, pH 7.7, 150 mM NaCl, 33.3 μM bovine serum albumin, 1 μM bovine globulin.
The binding of individual phage clones to PSA was tested by IFMA (phage IFMA). In the phage IFMA, about 30 ng of PSA was added to MAb 5E4 coated wells for 1 h. After washing (Buffer: 150 mM NaCl, 7.7 mM NaN3, 0.2 g/L Tween 20), 15 μL of phage and 200 μl assay buffer was added. After incubation for 1 h, the wells were washed and filled with 200 μl of assay buffer containing 50 ng europium-labeled anti phage monoclonal antibody recognizing the M13 coat protein of the phage. After incubation for 60 min, the wells were washed 4 times, and enhancement solution (EG&G-Wallac) was added. The fluorescence was quantified with a 1234 DELFIA Research fluorometer (EG&G-Wallac). Binding of GST-peptide to PSA was determined by an IFMA (GST-peptide IFMA) similar to the one for phage peptides except that Eu^3+-labeled antibody to GST was used. Various amounts of GST-peptide or wild type GST were added to wells containing captured PSA in 200 μL of assay buffer and incubated for 1 h. To test the effect of Zn^2+ on the binding between GST-peptide and PSA, various concentrations of Zn^2+ (1-200 μM) were added to the buffer in the incubation step of GST-peptide and PSA. In competition experiments, GST-peptide (167 nM) or wild type GST were first incubated with increasing amounts of PSA (0-333 nM) in 0.5% BSA-TBS buffer for 60 min, then added to wells containing PSA captured by MAb 5E4. After incubation for 1 h the wells were washed and Eu^3+-labeled anti GST antibody was added. After further incubation and washing the bound fluorescence was measured as described above. When assessing the binding of the GST-peptides to other proteinases, including chymotrypsin, cathepsin G, trypsin, and kallikrein, these proteinases were captured by their specific antibodies coated to the microtitration well. Recombinant hK2 was captured by MAb 5E4, which is known to bind hK2 (24). For assessing the binding of the GST-peptides with complexes of PSA, including PSA-ACT and PSA-α1-protease inhibitor (PSA-API) (28), the complexes were captured by antibodies against ACT and API, respectively. After capturing the various proteinases or PSA complexes, GST-peptide was added and binding was monitored as described above for the GST-peptide IFMA.

PSA [3] = biological target: T1, PSA; experiment: PSA activity measurements with modified peptides, substrate S-2586 (Example 5); format: biochemical; set-up: PSA was purified from human seminal fluid as described previously (3); from tissue; host or cells: human seminal fluid; key to activity of modified peptide (active / inactive): PSA-peptide/PSA ratio above 1.1 was interpreted to be active; below 1.1 as inactive; settings: for activity of modified peptide (active / inactive): from PSA-peptide/PSA ratio; for effect of modification on the activity of the peptide (in words): compared with parent A-1, B-2 or C-4
Procedure: PSA activity measurements: The effect of different peptides on the activity of PSA was studied by using chymotrypsin substrate S-2586 (MeO-Suc-Arg-Pro-Tyr-pNA) (Chromogenix, Mölndal, Sweden). 77 pmoles (2 μg) of PSA, substrate and 10 μmoles of different peptides were incubated in Tris-buffer (10 mM Tris and 150 mM NaCl at pH 7.8) with 0.2 mM concentration of the substrate at room temperature. PSA reaction without any peptide was used as basic level control. Reaction was measured after 60 minutes incubation at […] using Multiscan RC photometer (Labsystems, Finland). The effect of the peptides was calculated as a ratio from the OD value of PSA-peptide complex to PSA alone after 60 minutes incubation.

T1 sequence (P07288 25-261): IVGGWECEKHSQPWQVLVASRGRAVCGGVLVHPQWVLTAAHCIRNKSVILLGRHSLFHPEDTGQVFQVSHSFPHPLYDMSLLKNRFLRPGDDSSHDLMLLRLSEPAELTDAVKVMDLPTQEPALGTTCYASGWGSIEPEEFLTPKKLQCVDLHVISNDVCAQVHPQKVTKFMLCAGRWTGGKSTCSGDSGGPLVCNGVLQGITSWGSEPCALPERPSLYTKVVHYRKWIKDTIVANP

## 1251-labeled C4: C4-peptide (CVAYCIEHHCWTC) iodinated by the Iodogen method (not fully specified (residue 4, bridges); cysteine pairing not given here)
PSA [1]; 30-fold molar excess
  effect of derivatization or labeling on PSA binding activity, read as effect on PSA enzyme activity (in words): almost completely destroyed its binding activity

## CLSTCAQSCRISC [Peptide D-1]
PSA [2]
  binding to PSA in GST-peptide IFMA (in words): did not show significant binding

## CVAYAIQHHC (disulfide 1-10 (inferred)) [Peptide C-4-4]
PSA [3]
  activity of modified peptide (active / inactive): inactive

## CVAYCIEHHCATC [Peptide C-4-6]
PSA [3]
  activity of modified peptide (active / inactive): inactive

## CVAYCIQHHCWTC [Peptide C-4-3]
PSA [3]
  effect of modification on the activity of the peptide (in words): did not affect
  activity of modified peptide (active / inactive): active

## CVFAHNYNALVC (disulfide 1-12 (inferred)) [Peptide B-2-3]
PSA [3]
  effect of modification on the activity of the peptide (in words): activity remained

## CVFAHNYNYLVC (disulfide 1-12 (inferred)) [Peptide B-2-2]
PSA [3]
  effect of modification on the activity of the peptide (in words): did not affect

## CVFTSNYAFC (disulfide 1-10 (inferred)) [Peptide A-1-4]
PSA [3]
  effect of modification on the activity of the peptide (in words): did not affect

## CVFTSNYAYC (disulfide 1-10 (inferred)) [Peptide A-1-2]
PSA [3]
  effect of modification on the activity of the peptide (in words): did not affect

## CVFTSNYNYC (disulfide 1-10 (inferred)) [Peptide A-1-3]
PSA [3]
  effect of modification on the activity of the peptide (in words): did not affect

## Eu-labelled C4-peptide: C4 peptide labelled with Eu-chelate, C18 fractions 26-28 (CVAYCIEHHCWTC; disulfide 1-13, 5-10; also: Eu-chelate label, site not given here)
PSA [1]; PSA 0.33 μM, 100 μL of C18 fractions 26-28
  effect of Eu-labelled peptide fractions on enzyme activity of PSA: enhanced the enzyme activity of PSA strongly

## SKSKSKS—aca-CVAYCIEHHCWTC (SKSKSKS[Ahx]CVAYCIEHHCWTC; not fully specified (bridges); printed as SKSKSKS—aca-CVAYCIEHHCWTC; cysteine pairing not given here) [SKSKSKS (SEQ ID NO:47)-tailed C4]
PSA [1]; 30-fold molar excess
  effect of derivatization or labeling on PSA binding activity, read as effect on PSA enzyme activity (in words): did not affect the binding activity

## Tc99m-labeled C4: reduced C4-peptide labeled with 99mTc between thiol-sulfurs (HDP method) (CVAYCIEHHCWTC; also: 99mTc complexed between reduced thiol sulfurs (HDP method))
PSA [1]; PSA 0.33 μM, 30-fold molar excess, compared with unlabelled C4
  reduction of binding by technetium labeling: about 50%

## Wild type GST: wild type glutathione S-transferase without inserted peptide, control [reference compound]
PSA [2]
  binding to PSA in GST-peptide IFMA (in words): did not bind
PSA [1]
  effect on the enzyme activity of PSA (in words): did not affect
PSA [1]; listed as wild type GST
  effect on the enzyme activity of PSA (in words): no effect
